Assay results published in patent US20140037708A1, “COMPOSITION FOR SPATIO AND/OR TEMPORAL RELEASE OF BIOACTIVE MATERIAL” (The Regents of the University of Colorado, a body corporate, priority 2012, published 2014).

Assay: Double-sided release test of fluorescent molecules from electrospun scaffolds in custom-made diffusion chambers
Format: physicochemical
Protocol: For molecule release characterizations, the circular samples with 24 mm in diameter were cut from PCL-PLGAac and PCL-PLGAes scaffolds loaded with fluorescent dye or fluorescently-labeled albumin. For each experimental condition, 3 samples were used for analyses. Scaffold samples were placed in a custom-made diffusion-test system in which a sample was sandwiched between two reservoir chambers. Each side of the electrospun scaffolds thus faced a different reservoir filled with 1 ml of buffer solution. The reservoirs used SecureSeal hybridization chambers (Grace Biolabs, Bend, Oreg.) which tightly sealed the surface. Each reservoir had small holes for sampling and changing solutions. The holes were covered with silicone sealing tap during experiments to prevent evaporation. Thus, the molecule movements between the reservoirs could only be through the pores of the electrospun materials. The release tests were performed at 37° C. Samples of buffer solutions in both reservoirs were collected every day during the first 16 days, and subsequently once a week for scaffolds loaded with fluorescent albumins. A shorter release experiment was performed in case of electrospun scaffolds loaded with Rh123. After samples were taken, the reservoir chambers were rapidly rinsed with DI water and refilled with fresh phosphate buffer at 37° C. […] The geometry and porosity of the molecule-releasing scaffolds kept constant for all the experimental samples. For the designs with multiple molecules, as various fluorophores could be simultaneously released by the samples, the possibility of the overlap of the fluorophore emission spectra was examined; we could find no overlaps in the interested spectrum ranges. […] For each type of molecule, the efficiency of separation between Side A and Side B, Smolecule—A-B, was defined as the percentage of the molecule released on Side A over the total amount of the molecule released on Sides A and B during the entire experimental duration.
To assess the potential use of PCL-PLGAac and PCL-PLGAes materials for spatially controlled release of active molecules, release experiments were performed using Rh123. PCL and PLGA/Rh123 solutions were electrospun to prepare scaffolds following the pattern described in FIG. 1. Release studies were carried out in custom-made diffusion chambers illustrated in FIG. 7a. The two sealed reservoirs filled with phosphate buffer solution were placed on the opposite sides of the electrospun scaffolds. The PCL side of the scaffold was set to face the buffer reservoir chamber on Side “A”; the Rh123-impregnated PLGA side was placed in contact with the buffer reservoir on Side “B”. […] The separation efficiency of Rh123 between the two surfaces (SRh123—B-A) of the PCL-PLGAac scaffolds was 82±5% during the 9-day release experiment. […] In addition, after day 3, the molecule concentration measured on the PCL side exceeded that on the PLGAes side.

For “fluorescein isothiocyanate conjugate bovine serum albumin [AlbF]”, the “separation efficiency (release of two proteins to one side)” value (PCL-PLGAac composite scaffold, AlbF in inner PLGAac fibers, AlbT in outer PLGAac fibers (FIG. 10a)) was 87±5%, the “separation efficiency between side B and side A (sequential release scaffold)” value (PCL/PLGA scaffold with dual PLGA gradient patterns: AlbF-loaded PLGA in the middle, AlbT-loaded PLGA close to side B (FIG. 11a)) was 0.92±0.03 and the “separation efficiency of AlbF between Side A and Side B (SAlbF A-B)” value (PLGAac-PCL-PLGAac composite scaffold, release to opposite sides (FIG. 12)) was 91±4%. For the same substance, the “initial release rate on Side B compared to AlbT” value (dual-protein PCL-PLGAac scaffold, first 10 days, cumulative release normalized to total delivered protein) was “slower rate” and the “day on which daily net release to side B peaked” value (sequential release scaffold (FIG. 11), first 12 days) was 5 days.
